Measurements from paper PMC5903867, “Hexameric and pentameric complexes of the ExbBD energizer in the Ton system” (eLife, 2018).

B1: ExbB (natural protein, Escherichia coli, UniProt P0ABU7 1-244, looked up)
chain: MGNNLMQTDLSVWGMYQHADIVVKCVMIGLILASVVTWAIFFSKSVEFFNQKRRLKREQQLLAEARSLNQANDIAADFGSKSLSLHLLNEAQNELELSEGSDDNEGIKERTSFRLERRVAAVGRQMGRGNGYLATIGAISPFVGLFGTVWGIMNSFIGIAQTQTTNLAVVAPGIAEALLATAIGLVAAIPAVVIYNVFARQIGGFKAMLGDVAAQVLLLQSRDLDLEASAAAHPVRVAQKLRAG
notes: ExbB, Escherichia coli, full length; inner membrane protein of the Ton system; residues about 10-234 resolved in the crystal; Forms hexamers and pentamers depending on pH, so copies is left open; also called ExbB hexamer; ExbB pentamer; source: E. coli BL21 (DE3) Gold, pET-21b, co-expressed with ExbD, purified from the membrane fraction in detergent (IMAC, SEC); not shown: His6, C-terminal, kept

Assays:
ExbB [1] = target: B1; experiment: cryo-EM structure; single particle, frozen-hydrated ExbBD complex in LMNG, 10 mM Tris-HCl pH 8.0; reference-free 2D classification and 3D reconstruction of the hexameric complex at 6.7 Å, no symmetry applied; conditions: both partners purified
[2] = target: the molecule itself; experiment: as above
ExbB [3] = target: B1; experiment: cryo-EM structure; single particle, frozen-hydrated ExbBD complex in LMNG, 10 mM Na-citrate pH 5.4; reference-free 2D classification and 3D reconstruction of the pentameric complex at 7.1 Å, 5-fold symmetry enforced; conditions: both partners purified
[4] = target: the molecule itself; experiment: crystal structure; ExbBD complex purified in C8E4 or C10E5; crystals grown at pH 9.0 (0.1 M glycine, 0.15 M CaCl2, ~40% PEG 350 MME), 20°C; space group P2_(1), 2.8 Å, molecular replacement
[5] = target: the molecule itself; experiment: negative-stain EM of 2D crystals; purified ExbBD complex (C8E4) reconstituted with E. coli total lipid extract by dialysis, 25 mM Na-citrate pH 5.4, 150 mM NaCl, 4°C; Fourier filtering of crystal patches
[6] = target: the molecule itself; experiment: cryo-EM structure; single particle, frozen-hydrated ExbBD complex in LMNG, 10 mM Na-citrate pH 5.4; reference-free 2D classification and 3D reconstruction of the pentameric complex at 7.1 Å, 5-fold symmetry enforced

stoichiometry N (ExbB [1])	stoichiometry N (ExbB [3])	Binder	stoichiometry N [2]	stoichiometry N [4]	ratio of hexamer to pentamer (printed as pentamer:hexamer) [2]	stoichiometry N [5]	ratio of pentamer to hexamer [6]
3 ExbD per ExbB hexamer	1 ExbD per ExbB pentamer	ExbD (natural protein, Escherichia coli, UniProt P0ABV2 1-141, looked up, ExbD, Escherichia coli, full length, no tag; only the TM helix is modelled in the cryo-EM maps; The PDB entries hold only the TM helix (ExbDTM) of ExbD; also called ExbDTM (its TM helix as modelled); ExbD trimer; source: E. coli BL21 (DE3) Gold, pET-21b, co-expressed with ExbB-His6, co-purified in detergent (IMAC, SEC)) MAMHLNENLDDNGEMHDINVTPFIDVMLVLLIIFMVAAPLATVDVKVNLPASTSTPQPRPEKPVYLSVKADNSMFIGNDPVTDETMITALNALTEGKKDTTIFFRADKTVDYETLMKVMDTLHQAGYLKIGLVGEETAKAK	3 subunits				
		B1		6 subunits	3 hexamer per pentamer	5 subunits	3 pentamer per hexamer
